# T1: GST-LXRα LBD (human)
# T1 sequence (Q13133 whole entry, looked up): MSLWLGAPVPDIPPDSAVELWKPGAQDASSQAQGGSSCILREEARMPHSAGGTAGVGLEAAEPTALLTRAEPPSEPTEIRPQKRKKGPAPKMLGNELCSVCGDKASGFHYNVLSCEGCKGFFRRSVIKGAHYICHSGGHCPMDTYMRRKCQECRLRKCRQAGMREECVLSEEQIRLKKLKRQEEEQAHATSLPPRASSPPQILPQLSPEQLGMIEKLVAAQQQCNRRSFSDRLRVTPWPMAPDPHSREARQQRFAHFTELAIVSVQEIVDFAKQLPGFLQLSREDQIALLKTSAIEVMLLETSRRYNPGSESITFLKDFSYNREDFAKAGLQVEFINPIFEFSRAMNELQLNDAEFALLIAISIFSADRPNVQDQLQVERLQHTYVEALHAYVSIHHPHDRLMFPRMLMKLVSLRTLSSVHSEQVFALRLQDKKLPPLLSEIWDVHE
# T2: GST-PXR LBD protein (human)
# T2 sequence (O75469 whole entry, species assumed, looked up): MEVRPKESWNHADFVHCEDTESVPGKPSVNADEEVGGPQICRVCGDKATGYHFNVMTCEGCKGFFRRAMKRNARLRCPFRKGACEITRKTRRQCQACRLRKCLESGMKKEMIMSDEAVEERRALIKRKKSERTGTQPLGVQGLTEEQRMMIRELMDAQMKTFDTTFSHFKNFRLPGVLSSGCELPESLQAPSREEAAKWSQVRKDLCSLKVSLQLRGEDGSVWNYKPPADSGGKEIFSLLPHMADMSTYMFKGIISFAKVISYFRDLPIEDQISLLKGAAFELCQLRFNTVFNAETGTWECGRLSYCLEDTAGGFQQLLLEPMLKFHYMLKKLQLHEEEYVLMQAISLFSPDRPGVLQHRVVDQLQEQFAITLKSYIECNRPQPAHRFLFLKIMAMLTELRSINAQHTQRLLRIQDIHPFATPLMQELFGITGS
# T3: GST-LXRβ LBD (human)
# T3 sequence (P55055 whole entry, looked up): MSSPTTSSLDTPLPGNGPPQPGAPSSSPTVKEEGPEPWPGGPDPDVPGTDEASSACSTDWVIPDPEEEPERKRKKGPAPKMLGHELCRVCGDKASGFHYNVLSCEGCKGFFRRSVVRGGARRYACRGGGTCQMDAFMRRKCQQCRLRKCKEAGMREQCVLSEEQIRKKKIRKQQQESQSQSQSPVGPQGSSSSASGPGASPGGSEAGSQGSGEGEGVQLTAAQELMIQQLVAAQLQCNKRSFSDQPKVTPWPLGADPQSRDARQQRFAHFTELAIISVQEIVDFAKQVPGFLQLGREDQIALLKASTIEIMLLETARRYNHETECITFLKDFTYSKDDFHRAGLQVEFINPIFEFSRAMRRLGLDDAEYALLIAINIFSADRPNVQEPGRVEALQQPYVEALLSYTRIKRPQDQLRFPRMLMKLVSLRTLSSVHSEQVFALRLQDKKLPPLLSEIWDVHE
# Experiments:
# Test in all cases: FRET or BRET
# Set-up in all cases: unit not given beside the values
# GST-LXRα LBD (human) = biological target: T1, GST-LXRα LBD (human)
# [1] = biological target: T2, GST-PXR LBD protein (human)
# GST-LXRβ LBD (human) = biological target: T3, GST-LXRβ LBD (human)
binder,measurement,setting,value
{FAM-(PEG)5}-CPSSHSSLTERHKILHRLLQEGSPS-NH2 [FAM-SRC1-B peptide],AUC of SRC-1 recruitment (TR-FRET) with SJPYT-299,GST-LXRα LBD (human),67.1
same,AUC of SRC-1 recruitment (TR-FRET) with SJPYT-300,GST-LXRα LBD (human),80.2
same,AUC of SRC-1 recruitment (TR-FRET) with SJPYT-301,GST-LXRα LBD (human),95.1
same,AUC of SRC-1 recruitment (TR-FRET) with SJPYT-302,GST-LXRα LBD (human),108
same,AUC of SRC-1 recruitment (TR-FRET) with SJPYT-303,GST-LXRα LBD (human),63.6
same,AUC of SRC-1 recruitment (TR-FRET) with SJPYT-304,GST-LXRα LBD (human),59.5
same,AUC of SRC-1 recruitment (TR-FRET) with SJPYT-305,GST-LXRα LBD (human),33.4
same,AUC of SRC-1 recruitment (TR-FRET) with SJPYT-315,GST-LXRα LBD (human),62.3
same,AUC of SRC-1 recruitment (TR-FRET) with SJPYT-316,GST-LXRα LBD (human),60.8
same,AUC of SRC-1 recruitment (TR-FRET) with SJPYT-317,GST-LXRα LBD (human),27.2
same,AUC of SRC-1 recruitment (TR-FRET) with T0901317,GST-LXRα LBD (human),122
same,AUC of SRC-1 recruitment (TR-FRET) with SJPYT-299,[1],102
same,AUC of SRC-1 recruitment (TR-FRET) with SJPYT-300,[1],102
same,AUC of SRC-1 recruitment (TR-FRET) with SJPYT-301,[1],129
same,AUC of SRC-1 recruitment (TR-FRET) with SJPYT-302,[1],102
same,AUC of SRC-1 recruitment (TR-FRET) with SJPYT-303,[1],134
same,AUC of SRC-1 recruitment (TR-FRET) with SJPYT-304,[1],113
same,AUC of SRC-1 recruitment (TR-FRET) with SJPYT-305,[1],161
same,AUC of SRC-1 recruitment (TR-FRET) with SJPYT-315,[1],57.4
same,AUC of SRC-1 recruitment (TR-FRET) with SJPYT-316,[1],38.7
same,AUC of SRC-1 recruitment (TR-FRET) with SJPYT-317,[1],39.5
same,AUC of SRC-1 recruitment (TR-FRET) with SJPYT-318,[1],47.1
same,AUC of SRC-1 recruitment (TR-FRET) with SJPYT-319,[1],23.6
same,AUC of SRC-1 recruitment (TR-FRET) with T0901317,[1],124
same,AUC of SRC-1 recruitment (TR-FRET) with SJPYT-299,GST-LXRβ LBD (human),133
same,AUC of SRC-1 recruitment (TR-FRET) with SJPYT-300,GST-LXRβ LBD (human),136
same,AUC of SRC-1 recruitment (TR-FRET) with SJPYT-301,GST-LXRβ LBD (human),154
same,AUC of SRC-1 recruitment (TR-FRET) with SJPYT-302,GST-LXRβ LBD (human),149
same,AUC of SRC-1 recruitment (TR-FRET) with SJPYT-303,GST-LXRβ LBD (human),120
same,AUC of SRC-1 recruitment (TR-FRET) with SJPYT-304,GST-LXRβ LBD (human),125
same,AUC of SRC-1 recruitment (TR-FRET) with SJPYT-305,GST-LXRβ LBD (human),76.1
same,AUC of SRC-1 recruitment (TR-FRET) with SJPYT-315,GST-LXRβ LBD (human),117
same,AUC of SRC-1 recruitment (TR-FRET) with SJPYT-316,GST-LXRβ LBD (human),144
same,AUC of SRC-1 recruitment (TR-FRET) with SJPYT-317,GST-LXRβ LBD (human),71.3
same,AUC of SRC-1 recruitment (TR-FRET) with SJPYT-318,GST-LXRβ LBD (human),21.8
same,AUC of SRC-1 recruitment (TR-FRET) with SJPYT-319,GST-LXRβ LBD (human),21.5
same,AUC of SRC-1 recruitment (TR-FRET) with T0901317,GST-LXRβ LBD (human),202
